Experiment: western blot, TGF-β-treated MCF-10A
Settings: glycan lost, control: control sgRNA cells

Substance | expression_or_secretion
PD-L1: STT3A/3B knockdown | decreases
PD-L1: STT3B knockdown | no change
PD-L1: STT3A knockdown | no change

Reference: article PMC5954021
